Data: the supplement of paper PMC11780869

system: Bacillus subtilis; test: cleaved RNA product abundance (RNA/gDNA barcode ratio) relative to median wild-type variant (ratio to wild type); higher = more accumulation of the downstream cleavage product; conditions: experiment (reporter, strain, medium): exp 8a: truncated aprE reporter, strain BJT201 with 2% xylose (RNase J1 expressed); cleavage site: glnRA (positions -5 to +31 mutated)
Procedure, shortened: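 Reporter mRNAs (truncated aprE or tetM) carrying barcoded, mutagenized RNase Y cleavage-site windows were made from oligos with a 9% error rate and integrated into the B. subtilis chromosome. Cultures grew in LB at 37°C from OD600 0.0003 to 0.3. Cleaved RNA was gel-selected, reverse transcribed and barcode-sequenced alongside genomic DNA barcodes, with UMI collapsing. Cleaved product abundance is the RNA:gDNA barcode ratio per variant, scaled to the median wild-type variant.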

Sequence | cleaved RNA product abundance
CGACATGTCCCGCTTCTTTCATTAATCCGTTAACAACTGTTTTGCTGTATACATTTACCTTTTAAGAGGAGGAAT | 0.166
CGACATGTCCCGCTTCTTTCATTAATCCGTTAACAACTGTTTTGGTATATACATATAGCTTTTAAGAGGAGGAAT | 0.275
CGACATGTCCCGCTTCTTTCATTAATCCGTTAACAACTGTTTTGTTATATACATTTACCTTTTAAGAGGAGGAAT | 0.271
CGACATGTCCCGCTTCTTTCATTAATCCGTTAACAACTGTTTTTCTATATACATATACCTTTTAAGAGGAGGAAT | 0.304
CGACATGTCCCGCTTCTTTCATTAATCCGTTAACAACTGTTTTTCTATATACATTTACCTTTTAAGAGGAGGAAT | 0.258
CGACATGTCCCGCTTCTTTCATTAATCCGTTAACAACTTTTTTGCTATATACATTTACCTTTTAAGAGGAGGAAT | 0.193
CGACATGTCCCGCTTCTTTCATTAATCCGTTAACAATTGTTTTGCTACATACATTTACCTTTTAAGAGGAGGAAT | 0.135
CGACATGTCCCGCTTCTTTCATTAATCCGTTAACAATTGTTTTGCTATATACATTTACCTTTTAAGAGGAGGAAT | 0.241
CGACATGTCCCGCTTCTTTCATTAATCCGTTAACACCTGTTTTGCTATATACATTTACCTTTTAAGAGGAGGAAT | 0.258
CGACATGTCCCGCTTCTTTCATTAATCCGTTAACATCTGTTTTGCTATATACATTTACCTTTTAAGAGGAGGAAT | 0.25
CGACATGTCCCGCTTCTTTCATTAATCCGTTAACTACTGTTTTGCTATATACATTTACCTTTTAAGAGGAGGAAT | 0.265
CGACATGTCCCGCTTCTTTCATTAATCCGTTAATAACTGTTTTGCTATATACATTTAACTTTTAAGAGGAGGAAT | 0.205
CGACATGTCCCGCTTCTTTCATTAATCCGTTAATAACTGTTTTGCTATATACATTTACCTTTTAAGAGGAGGAAT | 0.262
CGACATGTCCCGCTTCTTTCATTAATCCGTTACCAAATGTTTTGCTATATACATTTACCTTTTAAGAGGAGGAAT | 0.256
CGACATGTCCCGCTTCTTTCATTAATCCGTTACCAACAGTTTTGCTATATACATTTACCTTTTAAGAGGAGGAAT | 0.215
CGACATGTCCCGCTTCTTTCATTAATCCGTTACCAACTATTTTGCTATATACATTTACCTTTTAAGAGGAGGAAT | 0.178
CGACATGTCCCGCTTCTTTCATTAATCCGTTACCAACTCTTTTGCTATATACATTTACCTTTTAAGAGGAGGAAT | 0.128
CGACATGTCCCGCTTCTTTCATTAATCCGTTACCAACTGATTTGCTATATACATTTACCTTTTAAGAGGAGGAAT | 0.205
CGACATGTCCCGCTTCTTTCATTAATCCGTTACCAACTGTGTTGCTATATACATTTACCTTTTAAGAGGAGGAAT | 0.277
CGACATGTCCCGCTTCTTTCATTAATCCGTTACCAACTGTTATGCTATATACATTTACCTTTTAAGAGGAGGAAT | 0.307
CGACATGTCCCGCTTCTTTCATTAATCCGTTACCAACTGTTGTGCTATATACATTTACCTTTTAAGAGGAGGAAT | 0.182
CGACATGTCCCGCTTCTTTCATTAATCCGTTACCAACTGTTTAGCTATATACATTTACCTTTTAAGAGGAGGAAT | 0.208
CGACATGTCCCGCTTCTTTCATTAATCCGTTACCAACTGTTTTACTATATACATTTACCTTTTAAGAGGAGGAAT | 0.204
CGACATGTCCCGCTTCTTTCATTAATCCGTTACCAACTGTTTTCCTATATACATTTACCTTTTAAGAGGAGGAAT | 0.203
CGACATGTCCCGCTTCTTTCATTAATCCGTTACCAACTGTTTTGATATATACATTTACCTTTTAAGAGGAGGAAT | 0.276

Sequence | cleaved RNA product abundance
CGACATGTCCCGCTTCTTTCATTAATCCGTTACCAACTGTTTTGCAATATACATTTACCTTTTAAGAGGAGGAAT | 0.26
CGACATGTCCCGCTTCTTTCATTAATCCGTTACCAACTGTTTTGCCATATACATTTACCTTTTAAGAGGAGGAAT | 0.145
CGACATGTCCCGCTTCTTTCATTAATCCGTTACCAACTGTTTTGCGATATACATTTACCTTTTAAGAGGAGGAAT | 0.264
CGACATGTCCCGCTTCTTTCATTAATCCGTTACCAACTGTTTTGCTAAATACATTTACCTTTTAAGAGGAGGAAT | 0.169
CGACATGTCCCGCTTCTTTCATTAATCCGTTACCAACTGTTTTGCTACATACATTTACCTTTTAAGAGGAGGAAT | 0.326
CGACATGTCCCGCTTCTTTCATTAATCCGTTACCAACTGTTTTGCTATACACATTTACCTTTTAAGAGGAGGAAT | 0.212
CGACATGTCCCGCTTCTTTCATTAATCCGTTACCAACTGTTTTGCTATATAAATTTACCTTTTAAGAGGAGGAAT | 0.163
CGACATGTCCCGCTTCTTTCATTAATCCGTTACCAACTGTTTTGCTATATACAATTACCTTTTAAGAGGAGGAAT | 0.181
CGACATGTCCCGCTTCTTTCATTAATCCGTTACCAACTGTTTTGCTATATACATCTACCTTTTAAGAGGAGGAAT | 0.23
CGACATGTCCCGCTTCTTTCATTAATCCGTTACCAACTGTTTTGCTATATACATTAACCTTTTAAGAGGAGGAAT | 0.238
CGACATGTCCCGCTTCTTTCATTAATCCGTTACCAACTGTTTTGCTATATACATTTAACTTTTAAGAGGAGGAAT | 0.282
CGACATGTCCCGCTTCTTTCATTAATCCGTTACCAACTGTTTTGCTATATACATTTACATTTTAAGAGGAGGAAT | 0.209
CGACATGTCCCGCTTCTTTCATTAATCCGTTACCAACTGTTTTGCTATATACATTTACCGTTTAAGAGGAGGAAT | 0.173
CGACATGTCCCGCTTCTTTCATTAATCCGTTACCAACTGTTTTGCTATATACATTTACCTTTTAAGAGGAGGAAT | 0.255
CGACATGTCCCGCTTCTTTCATTAATCCGTTACCAACTGTTTTGCTATATACATTTACTTTTTAAGAGGAGGAAT | 0.208
CGACATGTCCCGCTTCTTTCATTAATCCGTTACCAACTGTTTTGCTATATACATTTATCTTTTAAGAGGAGGAAT | 0.306
CGACATGTCCCGCTTCTTTCATTAATCCGTTACCAACTGTTTTGCTATATACATTTCCCTTTTAAGAGGAGGAAT | 0.127
CGACATGTCCCGCTTCTTTCATTAATCCGTTACCAACTGTTTTGCTATATACATTTTCCTTTTAAGAGGAGGAAT | 0.231
CGACATGTCCCGCTTCTTTCATTAATCCGTTACCAACTGTTTTGCTATATACCTTTACCTTTTAAGAGGAGGAAT | 0.153
CGACATGTCCCGCTTCTTTCATTAATCCGTTACCAACTGTTTTGCTATATACGTTTACCTTTTAAGAGGAGGAAT | 0.253
CGACATGTCCCGCTTCTTTCATTAATCCGTTACCAACTGTTTTGCTATATACTTTTACCTTTTAAGAGGAGGAAT | 0.145
CGACATGTCCCGCTTCTTTCATTAATCCGTTACCAACTGTTTTGCTATATAGATTTACCTTTTAAGAGGAGGAAT | 0.226
CGACATGTCCCGCTTCTTTCATTAATCCGTTACCAACTGTTTTGCTATATATATTTACCTTTTAAGAGGAGGAAT | 0.212
CGACATGTCCCGCTTCTTTCATTAATCCGTTACCAACTGTTTTGCTATATCCATTTACCTTTTAAGAGGAGGAAT | 0.206
CGACATGTCCCGCTTCTTTCATTAATCCGTTACCAACTGTTTTGCTATTTACATTTACCTTTTAAGAGGAGGAAT | 0.118
